These results are taken from patent US20160274129.

The data set deals with T1, α-fructosyl-valyl-histidyl-leucyl-threonyl-proryl-glutamic acid.
T1 chain: VHLTPE

B1: NvFX (protein)
chain: MTTPRKETTVLIIGGGGTIGSSTALHLLRAGYTPSNITVLDTYPIPSAQSAGNDLNKIMGIRLRNKVDLQLSLEARDMWRNDALFRPFFHNTGRLDCESSAEGVEGLRREYQKLVEAGVGLEETHEWLDSEEAILEKAPLLQREEIEGWKAIWSEEGGWLAAAKAINAIGEELQRQGVRFGFGGAGSFKRPLFADDGTTCIGVETVDGTQYHADKVVLAAGAWSPALVDLEEQCCSKAWVYAHMQLTPEEAAVYKGCPVVYHGDVGFFFEPNENGVIKVCDEFPGFTRFKQHQPYGAPAPKPVSVPRSHAKHPTDTYPDASEESIKRAVSTFLPRFKDKPLFNRALCWCTDTADSALLICEHPRWKNFILATGDSGHSFKLLPIIGKHVVELVEGRLADDLAEAWRWRPGQGDARKSIRAAPAKDLADMPGWKHDQDSESR
With B1, the Specific activity (U/mg), 1 mM αF6P, purified enzyme amounted to 0 U/mg.

B2: NvFX-62D/106K/110L (protein)
chain: MTTPRKETTVLIIGGGGTIGSSTALHLLRAGYTPSNITVLDTYPIPSAQSAGNDLNKIMGIDLRNKVDLQLSLEARDMWRNDALFRPFFHNTGRLDCESSAEGVEKLRRLYQKLVEAGVGLEETHEWLDSEEAILEKAPLLQREEIEGWKAIWSEEGGWLAAAKAINAIGEELQRQGVRFGFGGAGSFKRPLFADDGTTCIGVETVDGTQYHADKVVLAAGAWSPALVDLEEQCCSKAWVYAHMQLTPEEAAVYKGCPVVYHGDVGFFFEPNENGVIKVCDEFPGFTRFKQHQPYGAPAPKPVSVPRSHAKHPTDTYPDASEESIKRAVSTFLPRFKDKPLFNRALCWCTDTADSALLICEHPRWKNFILATGDSGHSFKLLPIIGKHVVELVEGRLADDLAEAWRWRPGQGDARKSIRAAPAKDLADMPGWKHDQDSESR
B2 gave a Specific activity (U/mg), 1 mM αF6P, purified enzyme of 0.003 U/mg.

B3: PnFX (protein)
chain: MAPSRANTSVIVVGGGGTIGSSTALHLVRSGYTPSNVTVLDAYPIPSSQSAGNDLNKIMGVSLRNPVDLQLALEARQMWNEDELFKKFFHNTGRLDCAHGEKDIADLKSGYQALVDAGLDATNEWLDSEDEILKRMPLLSRDQIKGWKAIFSKDGGWLAAAKAINAVGEYLRDQGVRFGFYGAGSFKAPLLAEGVCIGVETVDGTRYYADKVVLAAGAWSPTLVELHEQCVSKAWVYGHIQLTPEEAARYKNSPVVYNGDVGFFFEPNEHGVIKVCDEFPGFTRFKMHQPFGAKAPKRISVPRSHAKHPTDTIPDASDVSIRRAIATFMPQFKNKKMFNQAMCWCTDTADAALLICEHPEWKNFVLATGDSGHSFKLLPNIGKHVVELLEGTLADDLAHAWRWRPGSGDALKSRRSAPAKDLADMPGWNHDKPRANL
Protein B3 had a Specific activity (U/mg), 1 mM αF6P, purified enzyme of 0.0091 U/mg.

B4: PnFX-62D/106K/110L/113K (protein)
chain: MAPSRANTSVIVVGGGGTIGSSTALHLVRSGYTPSNVTVLDAYPIPSSQSAGNDLNKIMGVDLRNPVDLQLALEARQMWNEDELFKKFFHNTGRLDCAHGEKDIAKLKSLYQKLVDAGLDATNEWLDSEDEILKRMPLLSRDQIKGWKAIFSKDGGWLAAAKAINAVGEYLRDQGVRFGFYGAGSFKAPLLAEGVCIGVETVDGTRYYADKVVLAAGAWSPTLVELHEQCVSKAWVYGHIQLTPEEAARYKNSPVVYNGDVGFFFEPNEHGVIKVCDEFPGFTRFKMHQPFGAKAPKRISVPRSHAKHPTDTIPDASDVSIRRAIATFMPQFKNKKMFNQAMCWCTDTADAALLICEHPEWKNFVLATGDSGHSFKLLPNIGKHVVELLEGTLADDLAHAWRWRPGSGDALKSRRSAPAKDLADMPGWNHDKPRANL
Consider B4, for which the Specific activity (U/mg), 1 mM αF6P, purified enzyme came out at 0.125 U/mg and the “fold of specific activity on αF6P against PnFX before mutation” value is reported as “specific activity on αF6P was elevated by 13.7 fold”.

B5: PnFX-62D/63H/106K/110L/113K/351S (protein)
chain: MAPSRANTSVIVVGGGGTIGSSTALHLVRSGYTPSNVTVLDAYPIPSSQSAGNDLNKIMGVDHRNPVDLQLALEARQMWNEDELFKKFFHNTGRLDCAHGEKDIAKLKSLYQKLVDAGLDATNEWLDSEDEILKRMPLLSRDQIKGWKAIFSKDGGWLAAAKAINAVGEYLRDQGVRFGFYGAGSFKAPLLAEGVCIGVETVDGTRYYADKVVLAAGAWSPTLVELHEQCVSKAWVYGHIQLTPEEAARYKNSPVVYNGDVGFFFEPNEHGVIKVCDEFPGFTRFKMHQPFGAKAPKRISVPRSHAKHPTDTIPDASDVSIRRAIATFMPQFKNKKMFNQAMCWCTDTADSALLICEHPEWKNFVLATGDSGHSFKLLPNIGKHVVELLEGTLADDLAHAWRWRPGSGDALKSRRSAPAKDLADMPGWNHDKPRANL
For the protein B5, the Specific activity (U/mg), 1 mM αF6P, purified enzyme is 0.667 U/mg.

B6: CFP-T7-H2 (protein)
chain: MTSNRADTRVIVVGGGGTIGSSTALHLVRSGYAPANITVLDTFEIPSAQSAGHDLNKIMGIALRNKVDLQMSLEARQMWKEDELFQPFFHNTGRMDCEHTPEGIEDLKKLYQALHDAGAGLEKTHAWLDNEDEILSKMPLLQRDQIQGWKAIWSQDGGWLAAAKAINAIGQFLKERGVKFGFGGAGSFKQPLFDDEGTTCIGVETADGTKYYADKVVLAAGAWSPTLVDLEDQCCSKAWVYAHIQLTPEEAAEYKGVPVVYNGEFGFFFEPDEFGVIKVCDEFPGFSRFKEHQPYGAPSPKRISVPRSHAKHPTDTYPDASEVSIKKAIATFLPRFQDKELFNRALCWCTDTADAALLMCEHPKWKNFILATGDSGHSFKILPNVGKYVVELIEGRLPEEMAYQWRWRPGGDALKSRRAAPPKDLADMPGWKHDPKL
For B6, the αF6P oxidation activity (crude enzyme; αFVH oxidation activity = 100) (relative (αFVH = 100)) worked out at 0.0735, the αF6P/αFV was found to be 0.000536 and the αF6P/αFVH turned out to be 0.000735.

B7: AnFX (protein)
chain: MTPRANTKIIVVGGGGTMGSSTALHLLRAGYTPSNITVLDTCPIPSAQSAGYDLNKIMGIRLRNKPDLQLSLEALDMWKNDPLFKPFFHNVGMIDVSSTEEGIEGLRKKYQSLLDAGIGLEKTNFMLESEDEILAKAPHFTQEQIKGWKGLFCGDGGWLAAAKAINAIGQFLKEQGVKFGFGGAGTFKKPLFADAHEKTCIGVETVDGTKYYADKVVLAAGAWSSTLVDLEEQCVSKAWVFAHIQLTPAEAAAYKNTPVIYDGDYGFFFEPNENGIIKVCDEFPGFTHFKMHQPYGSPAPKPISVPRSHAKHPTDTYPHASEVTIKKAINRFLPRFNDKELFNRAMCWCTDTADANLLVCEHPRWKGFYLATGDSGHSFKLLPNIGKHVVELLEERLESVFKDAWRWRPGSGDALKSRRAAPAKDLADMPGWRNEAKM
Protein B7 registered a Specific activity (U/mg), 1 mM αF6P, purified enzyme of 0 U/mg.

B8: AnFX-61D/105K/109L (protein)
chain: MTPRANTKIIVVGGGGTMGSSTALHLLRAGYTPSNITVLDTCPIPSAQSAGYDLNKIMGIDLRNKPDLQLSLEALDMWKNDPLFKPFFHNVGMIDVSSTEEGIEKLRKLYQSLLDAGIGLEKTNFMLESEDEILAKAPHFTQEQIKGWKGLFCGDGGWLAAAKAINAIGQFLKEQGVKFGFGGAGTFKKPLFADAHEKTCIGVETVDGTKYYADKVVLAAGAWSSTLVDLEEQCVSKAWVFAHIQLTPAEAAAYKNTPVIYDGDYGFFFEPNENGIIKVCDEFPGFTHFKMHQPYGSPAPKPISVPRSHAKHPTDTYPHASEVTIKKAINRFLPRFNDKELFNRAMCWCTDTADANLLVCEHPRWKGFYLATGDSGHSFKLLPNIGKHVVELLEERLESVFKDAWRWRPGSGDALKSRRAAPAKDLADMPGWRNEAKM
B8 displayed a Specific activity (U/mg), 1 mM αF6P, purified enzyme of 0.106 U/mg.

B9: AnFX-61D/62H/101K/105K/109L/112K/355S (protein)
chain: MTPRANTKIIVVGGGGTMGSSTALHLLRAGYTPSNITVLDTCPIPSAQSAGYDLNKIMGIDHRNKPDLQLSLEALDMWKNDPLFKPFFHNVGMIDVSSTEKGIEKLRKLYQKLLDAGIGLEKTNFMLESEDEILAKAPHFTQEQIKGWKGLFCGDGGWLAAAKAINAIGQFLKEQGVKFGFGGAGTFKKPLFADAHEKTCIGVETVDGTKYYADKVVLAAGAWSSTLVDLEEQCVSKAWVFAHIQLTPAEAAAYKNTPVIYDGDYGFFFEPNENGIIKVCDEFPGFTHFKMHQPYGSPAPKPISVPRSHAKHPTDTYPHASEVTIKKAINRFLPRFNDKELFNRAMCWCTDTADSNLLVCEHPRWKGFYLATGDSGHSFKLLPNIGKHVVELLEERLESVFKDAWRWRPGSGDALKSRRAAPAKDLADMPGWRNEAKM
In the case of B9, the Specific activity (U/mg), 1 mM αF6P, purified enzyme is 0.283 U/mg.

B10: EFP-T5 (protein)
chain: MAHSRASTKVVVVGGGGTIGSSTALHLIRSGYTPSNITVLDVYKTPSLQSAGHDLNKIMGIRLRNGPDLQLSLESLDMWQNDELFKPFFHQVGMIDCSSSKEGIENLRRKYQTLLDAGIGLEKTNVWLESEDEILAKAPNFTREQVKGWKGLFCTDGGWLAAAKAINAIGIFLQDKGVKFGFGDAGTFQQPLFAADGKTCIGLETTDGTKYFADKVVLAAGAWSPTLVDLEDQCVSKAWVFAHIQLTPKEADAYKNVPVVYDGEYGFFFEPDEYGVIKVCDEFPGFSRFKLHQPYGAASPKMISVPRSHAKHPTDTYPDASEVTIRKAIARFLPEFKDKELFNRTMCWCTDTADANLLICEHPKWKNFILATGDSGHSFKLLPNIGKYVVELLEGSLSQEMAGAWRWRPGGDALRSRRGAPAKDLAEMPGWKHDAHL
With B10, the Specific activity (U/mg), 1 mM αF6P, purified enzyme was 0 U/mg.

B11: EFP-T5-62D/63H/106K/110L/113K/355S (protein)
chain: MAHSRASTKVVVVGGGGTIGSSTALHLIRSGYTPSNITVLDVYKTPSLQSAGHDLNKIMGIDHRNGPDLQLSLESLDMWQNDELFKPFFHQVGMIDCSSSKEGIEKLRRLYQKLLDAGIGLEKTNVWLESEDEILAKAPNFTREQVKGWKGLFCTDGGWLAAAKAINAIGIFLQDKGVKFGFGDAGTFQQPLFAADGKTCIGLETTDGTKYFADKVVLAAGAWSPTLVDLEDQCVSKAWVFAHIQLTPKEADAYKNVPVVYDGEYGFFFEPDEYGVIKVCDEFPGFSRFKLHQPYGAASPKMISVPRSHAKHPTDTYPDASEVTIRKAIARFLPEFKDKELFNRTMCWCTDTADSNLLICEHPKWKNFILATGDSGHSFKLLPNIGKYVVELLEGSLSQEMAGAWRWRPGGDALRSRRGAPAKDLAEMPGWKHDAHL
B11 registered a Specific activity (U/mg), 1 mM αF6P, purified enzyme of 1.12 U/mg.

B12: EFP-T5-R62D (protein)
chain: MAHSRASTKVVVVGGGGTIGSSTALHLIRSGYTPSNITVLDVYKTPSLQSAGHDLNKIMGIDLRNGPDLQLSLESLDMWQNDELFKPFFHQVGMIDCSSSKEGIENLRRKYQTLLDAGIGLEKTNVWLESEDEILAKAPNFTREQVKGWKGLFCTDGGWLAAAKAINAIGIFLQDKGVKFGFGDAGTFQQPLFAADGKTCIGLETTDGTKYFADKVVLAAGAWSPTLVDLEDQCVSKAWVFAHIQLTPKEADAYKNVPVVYDGEYGFFFEPDEYGVIKVCDEFPGFSRFKLHQPYGAASPKMISVPRSHAKHPTDTYPDASEVTIRKAIARFLPEFKDKELFNRTMCWCTDTADANLLICEHPKWKNFILATGDSGHSFKLLPNIGKYVVELLEGSLSQEMAGAWRWRPGGDALRSRRGAPAKDLAEMPGWKHDAHL
Consider B12, for which the Specific activity (U/mg), 1 mM αF6P, purified enzyme was 0.0043 U/mg.
